Patent US20250376696A1

Target: SIRPα of non-obese diabetic (NOD) mice (mouse (NOD strain)) (UniProt O89094)
Experiment: cell-based or functional assay

Chain of UniProt O89094 (O89094 168-257): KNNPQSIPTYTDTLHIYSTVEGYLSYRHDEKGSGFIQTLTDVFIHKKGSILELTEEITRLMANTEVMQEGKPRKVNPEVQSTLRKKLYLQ

human CD47 on lentiviral vector (LV) particles (from UniProt Q08722 19-323) (receptor)
LV copies in plasmacytoid dendritic cells (pDC), NOD versus C57BL/6 mice: > 10 fold | LV copies per cell (vector copy number, VCN) in sorted hepatocytes, NOD versus C57BL/6 mice: 4 fold | VCN in liver macrophages, NOD versus C57BL/6 mice: 30 fold | VCN in spleen, NOD versus C57BL/6 mice: 5 fold
